Measurements reported in paper PMC7666139 (Communications Biology, 2020).
One block for each binder: values may come before it. Non-standard residues stand in square brackets, D forms with d. No end group written: not given here. pY = N[C@@H](Cc1ccc(OP(=O)(O)O)cc1)C(=O)O

Tests used:
Conditions in all cases: both partners purified
[1] = molecular target: T1, 6xHis-tagged HACS1 SH3 domain (human, UniProt Q9NSI8 163-224); assay: ITC; 600 µM PIRB-GB1 in the syringe, 37 µM 6xHis-tagged HACS1 SH3 domain in the cell; 10 mM Tris, 50 mM NaCl, 1 mM TCEP, 0.05 NaN3, pH 7.5; single-site binding model
T1 construct: human HACS1 SH3 domain, codon-optimized synthetic gene; Gene synthesized, in a pD441NH expression vector (ATUM); 15N-labelled in the NMR experiments; Minimal folded SH3 domain is 168-222 by the NMR structure; also called HACS SH3 domain; 6xHis-tagged SH3 domain; source: E. coli, purified (Nickel-NTA, gel filtration)
T1 sequence (Q9NSI8 163-224): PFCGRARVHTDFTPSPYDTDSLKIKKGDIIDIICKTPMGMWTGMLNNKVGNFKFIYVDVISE

[2] = molecular target: T1, 6xHis-tagged HACS1 SH3 domain; assay: SPR; biotinylated phosphopeptide on a streptavidin gold sensor chip (OpenSPR); analyte 20 µM to 0.1 µM in 10 mM Tris-HCl, 100 mM NaCl, pH 7.4, 0.1% bovine serum albumin, 0.005% Tween-20, 0.05% NaN3; 40 µL/min; 1:1 interaction model
[3] = molecular target: T2, 6xHis/Flag-tagged human SHP2 N-SH2 domain (human, UniProt Q06124 1-107); assay: as above
T2 construct: human SHP2 phosphatase, N-SH2 domain, aa; 1-107; Gene synthesized; also called SHP2 SH2-N; SHP2 SH2(N) domain; source: E. coli, purified (Nickel-NTA, gel filtration)
T2 sequence (looked up): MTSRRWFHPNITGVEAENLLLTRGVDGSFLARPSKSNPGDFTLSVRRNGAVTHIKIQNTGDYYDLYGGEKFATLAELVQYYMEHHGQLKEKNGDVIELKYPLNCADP

Kd [1]: 15.9 µM
stoichiometry N [1]: 1
B1: murine PIRB-GB1 fusion protein (peptide, UniProt P97484 797-809, looked up)
chain: LCSRTLRQGAAAS
notes: 797-809; Methods: PIRB fragment and GB1 separated by a random 13 amino acid linker; Not phosphorylated; also called PIRB-GB1 hybrid protein; Protein GB1-tagged PIRB; source: E. coli, purified (Nickel-NTA, gel filtration); not shown: Protein G B1 domain (GB1), C-terminal, kept

Kd [2]: 15.9 µM
B2: biotinylated murine PIRB derived phosphopeptide (peptide)
peptide: GGQDVT[pY]AQLCSRTLRQGAAAS
modifications: also: biotin (position not given here)
notes: The leading GG may be a spacer and not part of PIRB; also called murine PIRB phospho-ITIM3 peptide; source: synthetic peptide (Genscript)

Kd [3]: 6.7 µM
koff [3]: 0.026 s⁻¹
kon [3]: 3800 M⁻¹ s⁻¹
Kd [2]: 8.7 µM
koff [2]: 0.017 s⁻¹
kon [2]: 1900 M⁻¹ s⁻¹
Binder: GGQDVT[pY]AQLHSLTRLREATE (also: biotin (position not given here)) [biotinylated human PIRB derived phosphopeptide]
